Laboratory results as given in US20220064284A1 (Janssen / Centocor, published 2022).

Assays:
[1] = target: T1, GPRC5D CAR GP5DB83-HL expressed on SupT1 cells; assay: flow cytometry on GPRC5D CAR (GP5DB83-HL) SupT1 cells, unconjugated GP5B318 detected with PE-goat anti-mouse IgG, PE MFI
T1 construct: Chimeric antigen receptor with the GP5B83 scFv in VH-VL order; also called GP5DB83-HL CAR; CAR 1 (GP5B83-HL)
Experimental: SupT1 cells expressing GP5DB83-HL were compared to parental CAR-SupT1 cells. SupT1 cells expressing GP5DB83-HL and parental CAR-SupT1 cells were stained with near IR LIVE/DEAD fluorescent reactive dye on ice for 20 mins. After incubation, the cells were washed and resuspended in BSA stain buffer Cells (100,000 cells/well) were plated in a 96 well plate and incubated with increasing concentrations of GP5B318 for 30 minutes on ice with and without 10 μg/mL CAR-Fc Fusion protein, GP5B83_N24T_N315-HL-hu Fc-scFv (GP5B30.002). Following incubation, the samples were washed with BSA stain buffer and stained with PE-goat anti-mouse IgG polyclonal to detect bound antibody on live SupT1 cells. After incubation, washing, and fixation, the samples were acquired on a 10 color FACSCanto II flow cytometer. Analysis was done using FlowJo and the PE median fluorescent intensity of live SupT1 cells is plotted in FIG. 3. […] No binding was detected on CAR-SupT1 parental cells.

GP5B305 = target: T2, GP5B305; assay: SPR (ProteOn XPR36), mAb captured on anti-mouse Fc, antigen 50 nM to 0.2 nM in solution
T2 construct: Used as the analyte in the ProteOn assay ('Antigens (scFV Fc Fusions)'); not shown: Hinge/Fc of HC2; all of HC1 (CD3B376 Fab heavy chain with C-terminal BCMB516-LH-scFv); CD3B376 light chain
T2 sequence (scFv, as listed by the source limits assumed): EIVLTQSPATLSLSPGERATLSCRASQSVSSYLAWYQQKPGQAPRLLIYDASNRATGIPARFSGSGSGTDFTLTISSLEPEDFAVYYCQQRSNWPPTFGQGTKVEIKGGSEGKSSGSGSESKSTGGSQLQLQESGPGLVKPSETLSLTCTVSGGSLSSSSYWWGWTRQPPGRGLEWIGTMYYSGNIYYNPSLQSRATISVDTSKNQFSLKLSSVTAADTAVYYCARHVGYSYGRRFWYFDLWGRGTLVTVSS
Experimental: ProteOn XPR36 system (BioRad) was used to perform binding assays. ProteOn GLC chips (BioRad, Cat #176-5011) were coated with Anti-Mouse Fc antibody. Library Antibodies (Mouse IgG2a) diluted to 0.25 ug/ml to 1 ug/ml to reach approximately 100-200RL. Antigens (scFV Fc Fusions) are associated at 50 nM to 0.2 nM, 1:4 dilutions for 3 minutes. Dissociation for 30 mins. The results of the assay (Table 1 below) show picomolar affinity of GP5B318 with GP5B305. GP5B305 is a bi-specific antibody that includes HCl N-Terminal CD3B376-Fab/C-Terminal BCMB516-LH-scFv* and HC2 N-Terminal GP5B83 N23T, N30S-LH-scFv*.

[2] = target: T1, GPRC5D CAR GP5DB83-HL expressed on …; assay: flow cytometry on GPRC5D CAR (GP5DB83-HL) SupT1 cells, directly PE-conjugated GP5B318, PE MFI
Experimental: GP5B318 was conjugated to R-PE as described above and tested for binding to GP5DB83-HL SupT1 in the presence or absence of 10 μg/mL GP5DB83-scFv Fc fusion protein to assess the specificity of GP5B318 binding to GP5DB83-HL CAR and ensure CAR detection was not affected by PE labeling. GP5DB83-HL SupT1 cells were stained with near IR LIVE/DEAD fluorescent reactive dye in 50 mL tube on ice for 20 mins. After incubation, the cells were washed and resuspended in BSA stain buffer to 2×10⁶ cells/mL. 100,000 cells/well were seeded in 96 well plate and incubated with increasing concentrations of PE-GP5B318 and 10 μg/mL GP5DB83-scFv Fc for 45 minutes on ice. After incubation, washing, and fixation, the samples were acquired on a 10 color FACSCanto II flow cytometer. Analysis was performed using FlowJo analysis software and the PE median fluorescent intensity of live SupT1 cells is plotted in FIG. 4.

T1 sequence (chain, as listed by the source limits assumed): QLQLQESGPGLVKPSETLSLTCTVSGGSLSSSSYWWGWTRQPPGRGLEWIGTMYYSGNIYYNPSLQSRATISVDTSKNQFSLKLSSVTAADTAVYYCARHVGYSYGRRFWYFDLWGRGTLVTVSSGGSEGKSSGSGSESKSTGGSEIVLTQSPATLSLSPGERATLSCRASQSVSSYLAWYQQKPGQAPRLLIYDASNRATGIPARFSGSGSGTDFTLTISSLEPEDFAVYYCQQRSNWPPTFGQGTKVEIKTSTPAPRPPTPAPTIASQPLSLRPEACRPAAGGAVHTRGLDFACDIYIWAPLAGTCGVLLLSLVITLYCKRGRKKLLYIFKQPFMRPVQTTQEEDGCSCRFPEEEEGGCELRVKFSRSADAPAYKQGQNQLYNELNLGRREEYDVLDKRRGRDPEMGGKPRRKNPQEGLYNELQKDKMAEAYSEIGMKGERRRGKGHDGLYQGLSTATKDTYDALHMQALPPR

| EC50 [1] | Kd (GP5B305) | koff (GP5B305) | kon (GP5B305) | EC50 [2] | Binder |
| --- | --- | --- | --- | --- | --- |
| 0.03 µg/mL | < 2.9 pM | < 2.9e-05 s⁻¹ | > 1e+07 M⁻¹ s⁻¹ | – | GP5B318 (antibody, mouse IgG2a, kappa, V domains shown, made in HEK293 Expi or CHO; also called anti-idiotypic antibody GP5B318; chimeric mAb with human VH/VL and murine IgG2a/k) VH: EVQLVQSGAEVKKPGESLKISCKGSGYSFTSYWIGWVRQMPGKGLEWMGIIYPGDSDTRYSPSFQGQVTISADKSISTAYLQWSSLKASDTAMYYCARGWDYGTGEFDYWGQGTLVTVSS VL: EIVLTQSPGTLSLSPGERATLSCRASQSIGNWLNWYQQKPGKAPKLLIYYASSLQSGVPSRFSGSGSGTDFTLTISSLQPEDFAVYYCQQSLSFPITFGQGTKVEIKR |
| – | – | – | – | 0.1 µg/mL | PE-GP5B318 (antibody, mouse IgG2a, kappa, V domains shown, antibody conjugated to R-phycoerythrin, purified to a 1:1 PE:antibody ratio; site not stated, GP5B318 labelled with phycoerythrin (Expedeon kit); also called PE-P5B318; GP5B318 conjugated to R-PE) VH: EVQLVQSGAEVKKPGESLKISCKGSGYSFTSYWIGWVRQMPGKGLEWMGIIYPGDSDTRYSPSFQGQVTISADKSISTAYLQWSSLKASDTAMYYCARGWDYGTGEFDYWGQGTLVTVSS VL: EIVLTQSPGTLSLSPGERATLSCRASQSIGNWLNWYQQKPGKAPKLLIYYASSLQSGVPSRFSGSGSGTDFTLTISSLQPEDFAVYYCQQSLSFPITFGQGTKVEIKR |
